Laboratory results from article PMC11065870, “The complete assembly of human LAT1-4F2hc complex provides insights into its regulation, function and localisation” (Nature Communications, 2024).

T1: 4F2hc, desialylated (neuraminidase-treated) (human, UniProt P08195-1 1-630, N-glycans at Asn365, Asn381, Asn424 and Asn506 without sialic acid (neuraminidase); fucosylation and branching retained)
T1 construct: 4F2 cell-surface antigen heavy chain (4F2hc, SLC3A2), human, full-length cDNA in pCAG; also called desialylated 4F2hc; source: HEK293F, co-transfected with LAT1, purified, then neuraminidase digestion
T1 sequence (looked up): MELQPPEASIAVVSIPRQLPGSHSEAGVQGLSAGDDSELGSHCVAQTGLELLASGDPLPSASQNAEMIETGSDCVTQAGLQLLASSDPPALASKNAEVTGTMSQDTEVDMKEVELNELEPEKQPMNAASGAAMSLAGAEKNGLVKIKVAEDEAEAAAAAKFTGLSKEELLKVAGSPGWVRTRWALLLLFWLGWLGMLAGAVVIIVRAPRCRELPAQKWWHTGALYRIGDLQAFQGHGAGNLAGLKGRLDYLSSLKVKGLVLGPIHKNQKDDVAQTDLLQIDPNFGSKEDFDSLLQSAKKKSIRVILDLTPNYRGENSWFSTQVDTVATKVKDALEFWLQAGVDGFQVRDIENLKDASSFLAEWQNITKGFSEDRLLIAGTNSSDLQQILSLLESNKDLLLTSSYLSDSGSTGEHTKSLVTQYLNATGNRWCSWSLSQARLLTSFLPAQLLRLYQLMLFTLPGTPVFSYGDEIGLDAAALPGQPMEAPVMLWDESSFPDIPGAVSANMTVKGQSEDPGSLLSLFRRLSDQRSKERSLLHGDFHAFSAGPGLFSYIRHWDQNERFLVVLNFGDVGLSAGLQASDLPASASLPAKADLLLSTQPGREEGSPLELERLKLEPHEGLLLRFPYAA

T2: 4F2 cell-surface antigen heavy chain (4F2hc, SLC3A2), fully glycosylated (human, UniProt P08195-1 1-630, four highly branched, sialylated N-glycans at Asn365, Asn381, Asn424 and Asn506 (9 to 16 sialic acid residues); one phosphorylation site (residue not given))
T2 construct: 4F2 cell-surface antigen heavy chain (4F2hc, SLC3A2), human, full-length cDNA in pCAG; source: HEK293F, co-transfected with LAT1, purified (anti-Flag M2 resin, Ni-NTA, SEC) in digitonin
T2 sequence (looked up): T1 sequence (looked up)

B1: L-type amino acid transporter 1 (LAT1, SLC7A5) (natural protein)
chain: not shown
modifications: phosphoserine at S35 (mono-phosphorylated proteoform, part of the population)
notes: L-type amino acid transporter 1 (LAT1, SLC7A5), human, full-length cDNA in pCAG; also called light chain; source: HEK293F, co-transfected with 4F2hc, purified (anti-Flag M2 resin, Ni-NTA, SEC) in digitonin
B2: LAT1-4F2hc heterodimer, wild type, fully glycosylated (complex)
chain 1: not shown
chain 2: T1 sequence (looked up)
modifications: phosphoserine at S35 (mono-phosphorylated proteoform, part of the population) | four highly branched, sialylated N-glycans at Asn365, Asn381, Asn424 and Asn506 (9 to 16 sialic acid residues); one phosphorylation site (residue not given)
notes: L-type amino acid transporter 1 (LAT1, SLC7A5), human, full-length cDNA in pCAG; 4F2 cell-surface antigen heavy chain (4F2hc, SLC3A2), human, full-length cDNA in pCAG; The two chains are joined by a disulfide bond; Two such heterodimers form the super-dimer (LAT1-4F2hc)2; also called LAT1-4F2hc complex; SLC7A5-SLC3A2; source: HEK293F, co-transfected, purified (anti-Flag M2 resin, Ni-NTA, SEC) in …

Legend:
[1] = target: the molecule itself; assay: native MS; LAT1 alone; sample and conditions not told in the text (Supplementary Fig. 12C)
[2] = target: T1, 4F2hc, desialylated …; assay: native MS; complex at about 4 µM in 200 mM ammonium acetate pH 7.0 with 2 mM OGNG, released from OGNG micelles, Q Exactive UHMR, positive mode; details: both partners purified
[3] = target: T2, 4F2 cell-surface antigen heavy chain …; assay: as above; details: both partners purified
[4] = target: the molecule itself; assay: as above

Row | Binder | stoichiometry N [1] | binding result [2] | binding result [3] | stoichiometry N [4]
1 | B1 | 2 | binds | binds | –
2 | B2 | – | – | – | 2
